{"source": "paper PMC9520032", "biological_target": "Vibrio cholerae cytolysin E289A mutant, mature form (Vibrio cholerae)", "assay": "cryo-EM structure", "data": [{"substance": "Vibrio cholerae cytolysin E289A mutant, mature form (natural protein)", "values": [{"measurement": "stoichiometry N", "value": 7}]}]}
